The values below come from US6040149A, “Assay for identifying agents which act on the ceramide-activated protein kinase, kinase suppressor of ras, and methods of using said agents” (priority 1997, dated 2000).

The target of one experiment is T1, KSR (Mus musculus, UniProt Q61097).
T1 sequence (Q61097 1-873): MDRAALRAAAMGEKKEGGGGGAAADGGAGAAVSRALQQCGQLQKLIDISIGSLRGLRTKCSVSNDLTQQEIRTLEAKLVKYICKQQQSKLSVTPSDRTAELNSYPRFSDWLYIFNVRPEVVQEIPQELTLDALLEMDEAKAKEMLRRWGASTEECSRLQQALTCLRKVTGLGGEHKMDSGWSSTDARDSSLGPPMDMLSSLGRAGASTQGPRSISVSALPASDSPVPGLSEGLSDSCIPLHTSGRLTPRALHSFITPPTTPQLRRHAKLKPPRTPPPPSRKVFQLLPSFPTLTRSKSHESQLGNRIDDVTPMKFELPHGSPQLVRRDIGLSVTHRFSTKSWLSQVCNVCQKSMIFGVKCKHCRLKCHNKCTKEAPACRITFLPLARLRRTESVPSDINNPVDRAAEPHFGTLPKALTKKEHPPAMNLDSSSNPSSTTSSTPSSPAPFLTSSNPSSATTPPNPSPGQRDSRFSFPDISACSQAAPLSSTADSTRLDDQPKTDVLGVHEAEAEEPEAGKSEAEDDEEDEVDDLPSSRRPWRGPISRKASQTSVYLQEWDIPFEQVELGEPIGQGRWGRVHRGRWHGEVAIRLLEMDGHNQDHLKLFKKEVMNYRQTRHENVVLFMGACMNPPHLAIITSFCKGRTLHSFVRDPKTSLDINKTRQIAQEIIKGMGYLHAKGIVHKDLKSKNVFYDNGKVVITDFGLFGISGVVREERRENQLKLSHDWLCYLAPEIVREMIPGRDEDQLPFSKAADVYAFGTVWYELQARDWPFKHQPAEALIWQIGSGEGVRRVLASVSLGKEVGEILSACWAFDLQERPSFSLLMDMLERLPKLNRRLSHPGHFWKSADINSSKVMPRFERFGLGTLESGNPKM
In words: KSR autophosphorylation after treatment of COS-7 cells expressing KSR. As to conditions: COS-7 cells, preliminary. Type of experiment: cell-based, mouse (KSR expressed in COS-7 cells). How it is done: FIG. 23A--COS-7 cells were transfected as in FIG. 22A and placed in serum-free medium. After 4 hours, cells were stimulated for 10 min with the ceramide analog, C2-ceramide (Biomol), at the concentrations indicated. Cells were lysed with NP-40 lysis buffer, and Flag-tagged KSR (0.8 mg protein for each point) was immunoprecipitated and assayed for autophosphorylation activity as described in Experimental Procedures. The autoradiogram was exposed for 1 hour. KSR is expressed at similar levels in each sample as monitored by Western blot (data not shown). Data represent one of three similar experiments.
COS-7 cells expressing Flag-tagged KSR were stimulated with 10 nM TNFα for the times indicated and lysed with NP-40 buffer as in FIG. 2A. […] The autoradiogram was exposed for 1 hour. Data represent one of three similar experiments.
KSR was immunoprecipitated as above from 0.8 mg NP-40 lysate protein with 40 μl agarose-conjugated anti-Flag antibody at 4° C. for 4 hrs or overnight. […] The reaction was stopped by addition of Laemmli sample buffer. Samples were resolved by 7.5% sodium dodecyl sulfate-polyacrylamide gel electrophoresis (SDS-PAGE) and autoradiographed.

Experiment [1] has as its system Raf-1. In words: Activation of Raf-1 by KSR in vitro (MEK1 phosphorylation).
Experiment [2] has as its system Raf-1. In words: Raf-1 activity after co-expression with KSR in COS-7 cells. Type of experiment: cell-based, human (Raf-1 expressed in COS-7 cells). The protocol:
Some studies used untagged KSR (n=4) and yielded identical results. At 60 hours post-transfection, cells were lysed with RIPA buffer (NP-40 buffer containing 0.1% SDS and 0.1% deoxy cholate). […] […]. The samples were boiled for 5 min, resolved with SDS-PAGE (7.5%) and autoradiographed.
[…]. After 30 min, the reaction was stopped by addition of Laemmli sample buffer and phosphorylated MBP were resolved by 15% SDS-PAGE, prior to autoradiography.
; a kind gift of Dr. Natalie Ahn) or 1.25 μg recombinant human MEK1 (Santa Cruz), 0.625 μg recombinant human ERK1 (UBI) and myelin basic protein (MBP). After 20-30 min, the reaction was stopped by addition of SDS sample buffer. […]

B1: EGF: EGF (protein, UniProt P01133 23-1207, looked up)
Pro-epidermal growth factor: PQHWSCPEGTLAGNGNSTCVGPAPFLIFSHGNSIFRIDTEGTNYEQLVVDAGVSVIMDFHYNEKRIYWVDLERQLLQRVFLNGSRQERVCNIEKNVSGMAINWINEEVIWSNQQEGIITVTDMKGNNSHILLSALKYPANVAVDPVERFIFWSSEVAGSLYRADLDGVGVKALLETSEKITAVSLDVLDKRLFWIQYNREGSNSLICSCDYDGGSVHISKHPTQHNLFAMSLFGDRIFYSTWKMKTIWIANKHTGKDMVRINLHSSFVPLGELKVVHPLAQPKAEDDTWEPEQKLCKLRKGNCSSTVCGQDLQSHLCMCAEGYALSRDRKYCEDVNECAFWNHGCTLGCKNTPGSYYCTCPVGFVLLPDGKRCHQLVSCPRNVSECSHDCVLTSEGPLCFCPEGSVLERDGKTCSGCSSPDNGGCSQLCVPLSPVSWECDCFPGYDLQLDEKSCAASGPQPFLLFANSQDIRHMHFDGTDYGTLLSQQMGMVYALDHDPVENKIYFAHTALKWIERANMDGSQRERLIEEGVDVPEGLAVDWIGRRFYWTDRGKSLIGRSDLNGKRSKIITKENISQPRGIAVHPMAKRLFWTDTGINPRIESSSLQGLGRLVIASSDLIWPSGITIDFLTDKLYWCDAKQSVIEMANLDGSKRRRLTQNDVGHPFAVAVFEDYVWFSDWAMPSVMRVNKRTGKDRVRLQGSMLKPSSLVVVHPLAKPGADPCLYQNGGCEHICKKRLGTAWCSCREGFMKASDGKTCLALDGHQLLAGGEVDLKNQVTPLDILSKTRVSEDNITESQHMLVAEIMVSDQDDCAPVGCSMYARCISEGEDATCQCLKGFAGDGKLCSDIDECEMGVPVCPPASSKCINTEGGYVCRCSEGYQGDGIHCLDIDECQLGEHSCGENASCTNTEGGYTCMCAGRLSEPGLICPDSTPPPHLREDDHHYSVRNSDSECPLSHDGYCLHDGVCMYIEALDKYACNCVVGYIGERCQYRDLKWWELRHAGHGQQQKVIVVAVCVVVLVMLLLLSLWGAHYYRTQKLLSKNPKNPYEESSRDVRSRRPADTEDGMSSCPQPWFVVIKEHQDLKNGGQPVAGEDGQAADGSMQPTSWRQEPQLCGMGTEQGCWIPVSSDKGSCPQVMERSFHMPSYGTQTLEGGVEKPHSLLSANPLWQQRALDPPHQMELTQ
modifications: Pro-epidermal growth factor
As to B1, the “activation of KSR/CAP kinase” value with KSR was “does not activate KSR/CAP kinase”.

B2: KSR: mouse kinase suppressor of ras, Flag-tagged (protein, UniProt Q61097 1-873, looked up)
Kinase suppressor of Ras 1: T1 sequence (Q61097 1-873)
modifications: Flag tag
notes: mouse kinase suppressor of ras, Flag-tagged
Regarding B2, in the experiment with Raf-1 [1], the “direct effect on MEK or ERK” value is given as “no direct effect”. Besides, the “Raf-1 activation in COS-7 cells co-expressing KSR” value in the experiment on Raf-1 [2] was “marked increase in Raf-dependent MEK1 phosphorylation”.
